In experiment [1] the target is T1, human glypican-3 core domain, residues 32-483 (hGPC3^core) (human, UniProt P51654 32-483, N-linked glycans at N124 and N241). In words: SPR. In general terms: Surface plasmon resonance follows binding to a sensor surface in real time, without labels.
The target of experiment [2] is T1, human glypican-3 core domain, residues …. The experiment is described as follows: SPR. The source holds these as a separate data set.

Read-outs that look alike come from different tables or passages of the source.

T1 sequence (P51654 32-483): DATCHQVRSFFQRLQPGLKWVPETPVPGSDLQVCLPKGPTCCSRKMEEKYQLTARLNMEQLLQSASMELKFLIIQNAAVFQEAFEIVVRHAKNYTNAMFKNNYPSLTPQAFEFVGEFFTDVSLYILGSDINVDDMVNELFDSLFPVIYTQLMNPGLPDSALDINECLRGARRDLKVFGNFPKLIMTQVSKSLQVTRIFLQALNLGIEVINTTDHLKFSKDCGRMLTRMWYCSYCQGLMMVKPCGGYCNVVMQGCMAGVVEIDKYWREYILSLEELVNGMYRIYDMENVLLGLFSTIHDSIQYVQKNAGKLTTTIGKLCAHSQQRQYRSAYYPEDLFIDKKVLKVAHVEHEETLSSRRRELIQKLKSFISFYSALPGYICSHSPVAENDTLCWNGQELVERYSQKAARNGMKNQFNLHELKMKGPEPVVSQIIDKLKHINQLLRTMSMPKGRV

B1: Rattus norvegicus Unc5D residues 32-307 (rUnc5D^IgIgTSP) (domain or fragment)
chain: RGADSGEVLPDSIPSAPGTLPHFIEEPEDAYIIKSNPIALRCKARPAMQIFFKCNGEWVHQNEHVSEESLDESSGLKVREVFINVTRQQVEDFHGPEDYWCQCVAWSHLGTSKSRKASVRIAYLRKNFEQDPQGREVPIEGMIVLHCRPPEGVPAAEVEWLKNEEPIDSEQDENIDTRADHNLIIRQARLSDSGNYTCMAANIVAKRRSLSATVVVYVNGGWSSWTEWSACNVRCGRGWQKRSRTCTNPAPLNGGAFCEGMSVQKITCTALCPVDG
modifications: C-mannosylated tryptophans W253 and W256 (TSP1)
In experiment [1], B1 yielded a Kd of 265 nM.

B2: mouse Unc5C ectodomain (domain or fragment)
chain: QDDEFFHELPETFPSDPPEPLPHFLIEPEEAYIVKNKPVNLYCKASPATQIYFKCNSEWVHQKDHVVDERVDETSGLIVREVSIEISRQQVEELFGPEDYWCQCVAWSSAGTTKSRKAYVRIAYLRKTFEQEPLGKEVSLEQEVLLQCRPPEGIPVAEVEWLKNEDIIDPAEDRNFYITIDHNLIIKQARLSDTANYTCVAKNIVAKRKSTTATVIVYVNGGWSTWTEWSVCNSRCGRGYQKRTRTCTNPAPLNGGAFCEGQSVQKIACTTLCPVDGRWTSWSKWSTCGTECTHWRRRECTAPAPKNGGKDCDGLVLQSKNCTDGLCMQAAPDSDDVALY
modifications: biotin on the Avi-tag
For B2, the Kd in experiment [2] is 3300 nM.

Usually Kd stands for the free concentration of one partner at which half of the binding sites on the other are occupied at equilibrium, for simple one-to-one binding. Higher therefore signals weaker binding.

For the origin of these results see paper PMC9596381 (2022).
